One block for each binder: values may come before it.
Biological target: T1, Sec61 (S. cerevisiae) (S. cerevisiae, UniProt P32915 1-480, surface-exposed lysines modified with low-molecular weight polyethylenglycol (MS(PEG)12 methyl-PEG-NHS-ester))
T1 sequence (looked up): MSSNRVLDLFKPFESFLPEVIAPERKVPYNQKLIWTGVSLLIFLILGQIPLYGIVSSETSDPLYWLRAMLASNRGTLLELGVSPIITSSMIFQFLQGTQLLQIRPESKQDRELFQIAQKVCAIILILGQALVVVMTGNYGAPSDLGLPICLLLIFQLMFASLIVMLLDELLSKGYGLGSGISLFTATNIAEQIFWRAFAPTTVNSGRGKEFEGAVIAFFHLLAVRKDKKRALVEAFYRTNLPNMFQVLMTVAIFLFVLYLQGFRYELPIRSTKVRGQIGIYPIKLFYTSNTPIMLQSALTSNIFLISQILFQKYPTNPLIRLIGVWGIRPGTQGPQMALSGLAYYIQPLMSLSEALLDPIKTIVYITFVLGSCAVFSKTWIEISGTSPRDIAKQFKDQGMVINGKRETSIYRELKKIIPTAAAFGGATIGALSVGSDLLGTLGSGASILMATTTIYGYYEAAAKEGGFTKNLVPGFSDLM
Experiment: cryo-EM structure

binding result: binds
B1: Sss1 (S. cerevisiae) (natural protein, UniProt P35179 1-80, looked up)
chain: MARASEKGEEKKQSNNQVEKLVEAPVEFVREGTQFLAKCKKPDLKEYTKIVKAVGIGFIAVGIIGYAIKLIHIPIRYVIV
modifications: surface-exposed lysines modified with low-molecular weight polyethylenglycol (MS(PEG)12 methyl-PEG-NHS-ester)

binding result: binds
B2: Sbh1 (S. cerevisiae) (natural protein, UniProt P52870 1-82, looked up)
chain: MSSPTPPGGQRTLQKRKQGSSQKVAASAPKKNTNSNNSILKIYSDEATGLRVDPLVVLFLAVGFIFSVVALHVISKVAGKLF
modifications: surface-exposed lysines modified with low-molecular weight polyethylenglycol (MS(PEG)12 methyl-PEG-NHS-ester)

binding result: binds
B3: Sec71 (S. cerevisiae) (natural protein, UniProt P33754 1-206, looked up)
chain: MSEFNETKFSNNGTFFETEEPIVETKSISVYTPLIYVFILVVSLVMFASSYRKKQAKKISEQPSIFDENDAHDLYFQIKEMSENEKIHEKVLKAALLNRGAESVRRSLKLKELAPQINLLYKNGSIGEDYWKRFETEVKLIELEFKDTLQEAERLQPGWVQLFVMVCKEICFNQALSRRYQSILKRKEVCIKEWELKINNDGRLVN
modifications: glycan (cleaved by Endoglycosidase H); surface-exposed lysines modified with low-molecular weight polyethylenglycol (MS(PEG)12 methyl-PEG-NHS-ester)

Reference: article PMC6367035 (Nature, 2018)
